Drawing on publication PMC4378939, this text covers koff, kon and Kd for one substance.

For test [1], the target named is single domain antibody against GFP with a six histidine-tag at the C-terminal (GFP-Nb) (llama). The test can be described thus: SPR; GFP-Nb diluted in NTA running buffer of pH 4.0-10.5, then captured on Ni:NTA chip; 30 nM GFP as analyte; constants given for the whole pH range. Background: SPR reads the build-up and loss of mass on a sensor chip optically.
Test [2] has the same target. Kind of test: SPR; GFP-Nb captured on Ni:NTA chip; 30 nM GFP diluted in NTA running buffer with different NaCl concentrations (up to 1 M) as analyte; constants given for all NaCl concentrations.
For test [3] the target is unchanged. Kind of test: SPR; GFP-Nb heated for 30 min at 25-100°C and cooled 30 min at room temperature, then captured on Ni:NTA chip; 30 nM GFP as analyte; NTA running buffer, 25°C; constants given for the whole temperature range.
For test [4] the target is unchanged. The test can be described thus: SPR; BIAcore X100, 25°C; GFP-Nb amine-coupled to a CM5 chip (~2500 R.U.), GFP as analyte (0.2-1000 nM; 10 nM with dissociation followed for 36000 s for koff); 10 mM HEPES pH 7.4, 0.15 M NaCl, 0.05% tween 20; KD from end-point response (Hill coefficient 1).
Test [5] has the same target. The test can be described thus: SPR; BIAcore X100, 25°C; GFP-Nb (~3 nM, ~50 R.U.) captured by its His tag on Ni:NTA chip, GFP as analyte (0.1-1000 nM), 30 μl/min; 10 mM HEPES pH 7.4, 0.15 M NaCl, 50 μM EDTA, 0.05% tween 20; kon and koff from 1:1 fit, KD from end-point response (Hill equation).
Test [6] shares this target. The test can be described thus: SPR; BIAcore X100, 25°C; GFP-Nb captured by its His tag on anti-polyhistidine antibody amine-coupled to a CM5 chip, GFP as analyte, 30 μl/min; 10 mM HEPES pH 7.4, 0.15 M NaCl, 0.05% tween 20; kon and koff from 1:1 fit, KD from end-point response (Hill equation).

As usually defined, the koff is the first-order rate constant of dissociation. Read a high koff as a short-lived complex. The term kon denotes the rate constant with which the complex forms. A lower kon goes with slow association. For orientation: Kd means the free concentration of one partner at which half of the binding sites on the other are occupied at equilibrium, for simple one-to-one binding. A low value points to a tighter complex.

single domain antibody against GFP with a six histidine-tag at the C-terminal (GFP-Nb) (llama), sequence (heavy, as listed by the source): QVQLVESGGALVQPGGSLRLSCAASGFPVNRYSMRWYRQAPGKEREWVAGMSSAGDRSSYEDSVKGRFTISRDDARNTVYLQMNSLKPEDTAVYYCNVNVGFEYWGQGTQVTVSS

Consider “Green Fluorescent Protein (GFP) (from UniProt P42212 1-238) (natural protein)”, for which the koff in test [1] was 0.00064 s⁻¹; in test [2] it was 0.00063 s⁻¹; in test [3], 0.00063 s⁻¹; in test [4], 1.4e-05 s⁻¹; in test [5], 0.00071 s⁻¹; in test [6], 0.00029 s⁻¹. In addition, the on-rate constant (kon) in test [1] was determined as 1.4e+06 M⁻¹ s⁻¹; in test [2], 1.5e+06 M⁻¹ s⁻¹; in test [3] it was 1.5e+06 M⁻¹ s⁻¹; in test [5] it was 1.1e+06 M⁻¹ s⁻¹; in test [6], 1e+06 M⁻¹ s⁻¹. Besides, the Kd in test [4] is 9.6 nM; in test [5], 6.1 nM; in test [6], 5.5 nM.
